Source: US20210032308A1 (published 2021)

Target: T1, recombinant human CD2 (biotinylated) (human, UniProt P06729 25-209, biotinylated (site not stated))
T1 construct: also called hCD2-biotin; human recombinant CD2
T1 sequence: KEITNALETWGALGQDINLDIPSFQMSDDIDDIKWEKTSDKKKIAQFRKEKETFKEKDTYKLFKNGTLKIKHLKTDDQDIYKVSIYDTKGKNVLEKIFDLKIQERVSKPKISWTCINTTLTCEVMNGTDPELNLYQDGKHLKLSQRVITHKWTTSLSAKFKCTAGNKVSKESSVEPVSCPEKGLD
Assay: flow cytometry on LFA3-displaying yeast

B1: N-terminal Ig-domain of human LFA3 (Residues 1-93) displayed on the surface of S. cerevisiae (ligand, not shown: small tags and cut ends; large carriers)
chain: FSQQIYGVVYGNVTFHVPSNVPLKEVLWKKQKDKVAELENSEFRAFSSFKNRVYLDTVSGSLTIYNLTSSDEDEYEMESPNITDTMKFFLYVL
  binding result: binds
